Reference: PMC7949109, “Trans-2-enoyl-CoA reductase limits Ca^2+ accumulation in the endoplasmic reticulum by inhibiting the Ca^2+ pump SERCA2b” (The Journal of Biological Chemistry, 2021)

Target: T1, PA-SERCA2b (recombinant SERCA2b with an N-terminal PA-tag) (human, UniProt P16615-1 1-1042)
T1 construct: human SERCA2b; cDNA in the pFastBac1 vector; source: Sf21 cells (baculovirus), solubilised with DDM, purified on anti-PA-tag NZ-1 Sepharose, eluted with PA-tag peptide; not shown: PA-tag, N-terminal, kept
T1 sequence (P16615 whole entry): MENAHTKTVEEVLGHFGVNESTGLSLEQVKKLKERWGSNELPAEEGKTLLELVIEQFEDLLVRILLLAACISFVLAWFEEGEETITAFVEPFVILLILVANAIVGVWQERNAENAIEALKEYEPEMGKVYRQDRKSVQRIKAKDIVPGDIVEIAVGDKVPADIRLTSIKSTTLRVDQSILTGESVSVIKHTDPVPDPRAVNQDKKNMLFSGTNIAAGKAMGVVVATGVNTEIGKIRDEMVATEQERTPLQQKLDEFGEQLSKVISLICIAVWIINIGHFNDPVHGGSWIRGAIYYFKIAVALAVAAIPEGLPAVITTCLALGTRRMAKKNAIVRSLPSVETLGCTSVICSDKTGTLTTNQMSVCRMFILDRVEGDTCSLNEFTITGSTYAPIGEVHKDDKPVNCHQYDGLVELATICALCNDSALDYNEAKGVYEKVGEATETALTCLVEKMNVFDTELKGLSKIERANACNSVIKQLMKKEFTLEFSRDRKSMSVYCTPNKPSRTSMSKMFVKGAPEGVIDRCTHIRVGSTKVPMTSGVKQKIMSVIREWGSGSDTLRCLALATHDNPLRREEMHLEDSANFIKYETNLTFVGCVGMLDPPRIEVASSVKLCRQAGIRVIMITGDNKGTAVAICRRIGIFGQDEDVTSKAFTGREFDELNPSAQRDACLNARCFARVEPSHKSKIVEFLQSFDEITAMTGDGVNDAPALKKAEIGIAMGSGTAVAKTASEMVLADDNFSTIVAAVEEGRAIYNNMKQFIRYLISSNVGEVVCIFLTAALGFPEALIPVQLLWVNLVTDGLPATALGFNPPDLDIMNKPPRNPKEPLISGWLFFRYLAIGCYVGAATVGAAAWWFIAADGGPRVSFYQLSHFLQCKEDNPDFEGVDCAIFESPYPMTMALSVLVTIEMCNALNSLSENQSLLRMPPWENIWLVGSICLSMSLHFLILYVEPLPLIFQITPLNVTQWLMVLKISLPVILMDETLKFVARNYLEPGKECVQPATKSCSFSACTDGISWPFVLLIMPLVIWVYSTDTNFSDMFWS
Experiment: pull-down; PA-SERCA2b (50 pmol) incubated with FLAG–TER (125 pmol) immobilised on anti-FLAG mAb resin, or resin alone, 4 °C 2 h; buffer H (50 mM Hepes–NaOH pH 7.0, 100 mM NaCl, 1 mM MgCl2, 5 mM EGTA, 1% DDM, 20% glycerol) with or without 100 nM free Ca2+; CBB staining; also 0.25 uM PA-SERCA2b pretreated with 2.5 uM thapsigargin (less pulled down)
Conditions: both partners purified

binding result: binds
B1: FLAG–TER (recombinant TER with an N-terminal FLAG-tag), from insect cells (enzyme, human, UniProt Q9NZ01 1-308, looked up)
chain: MKHYEVEILDAKTREKLCFLDKVEPHATIAEIKNLFTKTHPQWYPARQSLRLDPKGKSLKDEDVLQKLPVGTTATLYFRDLGAQISWVTVFLTEYAGPLFIYLLFYFRVPFIYGHKYDFTSSRHTVVHLACICHSFHYIKRLLETLFVHRFSHGTMPLRNIFKNCTYYWGFAAWMAYYINHPLYTPPTYGAQQVKLALAIFVICQLGNFSIHMALRDLRPAGSKTRKIPYPTKNPFTWLFLLVSCPNYTYEVGSWIGFAIMTQCLPVALFSLVGFTQMTIWAKGKHRSYLKEFRDYPPLRMPIIPFLL
notes: human trans-2-enoyl-CoA reductase (TER); cDNA in the pFastBacFLAGa vector; not shown: FLAG, N-terminal, kept
